Changes are numbered by the printed parent chain. Numbers in names are those of the source.
Assays:
[1] = target: T1, Murine CD73 on cells (4T1, Jurkat mCD73 knock-in) (murine, UniProt Q61503 29-551); test: flow cytometry, 4T1 / 4T1(mCD73 -shRNA)
T1 construct: whole, on cells; also called 4T1 (murine)
T1 sequence (looked up): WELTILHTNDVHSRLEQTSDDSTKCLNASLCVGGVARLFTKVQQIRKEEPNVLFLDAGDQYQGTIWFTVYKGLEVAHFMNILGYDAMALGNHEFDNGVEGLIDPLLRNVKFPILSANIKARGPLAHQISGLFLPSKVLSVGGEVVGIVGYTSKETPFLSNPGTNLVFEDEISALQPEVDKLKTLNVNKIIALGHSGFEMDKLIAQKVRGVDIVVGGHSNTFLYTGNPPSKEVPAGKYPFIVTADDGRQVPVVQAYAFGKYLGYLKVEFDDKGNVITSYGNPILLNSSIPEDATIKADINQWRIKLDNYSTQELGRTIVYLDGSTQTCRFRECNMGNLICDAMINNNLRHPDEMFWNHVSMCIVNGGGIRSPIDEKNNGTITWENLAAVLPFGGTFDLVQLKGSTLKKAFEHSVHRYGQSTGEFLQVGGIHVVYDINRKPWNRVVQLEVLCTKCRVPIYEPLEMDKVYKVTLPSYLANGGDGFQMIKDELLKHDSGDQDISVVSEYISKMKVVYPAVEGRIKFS

[2] = target: T2, Cynomolgus CD73 on MK-1 cells (cynomolgus, UniProt A0A2K5V5U7 27-549); test: flow cytometry, MK-1 cells
T2 construct: whole, on cells; also called MK-1 (cyno)
T2 sequence: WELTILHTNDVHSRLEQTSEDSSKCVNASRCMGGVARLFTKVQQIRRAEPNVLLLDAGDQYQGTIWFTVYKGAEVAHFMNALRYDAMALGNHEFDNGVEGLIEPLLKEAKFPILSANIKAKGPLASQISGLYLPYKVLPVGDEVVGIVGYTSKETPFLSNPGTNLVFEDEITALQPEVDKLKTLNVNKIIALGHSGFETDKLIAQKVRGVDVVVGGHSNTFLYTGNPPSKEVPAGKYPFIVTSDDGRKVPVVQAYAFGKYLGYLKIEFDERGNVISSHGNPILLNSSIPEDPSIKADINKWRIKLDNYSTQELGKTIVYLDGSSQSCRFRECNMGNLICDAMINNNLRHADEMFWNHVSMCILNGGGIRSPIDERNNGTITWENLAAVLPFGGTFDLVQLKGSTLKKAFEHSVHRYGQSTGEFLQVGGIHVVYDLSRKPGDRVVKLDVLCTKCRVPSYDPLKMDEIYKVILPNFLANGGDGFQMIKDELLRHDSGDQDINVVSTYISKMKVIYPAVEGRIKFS
Protocol: Binding of MEDI9447 to native CD73 expressed on human, murine, and cynomolgus monkey cell lines was characterized by flow cytometry. The cells were incubated with various concentrations of MEDI9447 and antibody binding was monitored with and fluorophore-labeled anti-human Fc antibody. A plot of the median fluorescence intensity as a function of the MEDI9447 concentration was fitted nonlinearly using a one-site binding isotherm model to calculate the equilibrium dissociation constant.

[3] = target: T1, Murine CD73 on cells (4T1, Jurkat mCD73 …); test: cell-based or functional assay
[4] = target: T3, Human CD73 on cells (MDA-MB-231, Jurkat CD73 knock-in, NCI-H322) (human, UniProt P21589 27-549); test: cell-based or functional assay
T3 sequence: T2 sequence with T199M, A350T, I466V

B1: MEDI9447 (antibody, human IgG1, lambda, V domains shown)
VH: EVQLLESGGGLVQPGGSLRLSCAASGFTFSSYAYSWVRQAPGKGLEWVSAISGSGGRTYYADSVKGRFTISRDNSKNTLYLQMNSLRAEDTAVYYCARLGYGRVDEWGRGTLVTVSS
VL: QSVLTQPPSASGTPGQRVTISCSGSLSNIGRNPVNWYQQLPGTAPKLLIYLDNLRLSGVPDRFSGSKSGTSASLAISGLQSEDEADYYCATWDDSHPGWTFGGGTKLTVLG
notes: Human IgG1-TM (L234F, L235E, P331S), lambda light chain; also called clone 10.3 antibody; 73combo3
Mean Fluorescence Intensity Ratio (MFIR) [1]: 3.9
Kd [2]: 0.084 nM
FabZAP internalization, EC50, 4T1 [3]: 0.0185 nM
FabZAP internalization, maximum toxicity, 4T1 [3]: 97%
FabZAP internalization, EC50, MDA-MB-231 [4]: 0.0035 nM
FabZAP internalization, maximum toxicity, MDA-MB-231 [4]: 97%

— US20230340152A1 (published 2023)
